# Patent US9708375 (Amgen, dated 2017)
# T1: biotin labeled human recombinant Sclerostin (human, UniProt Q9BQB4 24-213)
# T1 construct: also called human Sclerostin; huSOST
# T1 sequence (looked up): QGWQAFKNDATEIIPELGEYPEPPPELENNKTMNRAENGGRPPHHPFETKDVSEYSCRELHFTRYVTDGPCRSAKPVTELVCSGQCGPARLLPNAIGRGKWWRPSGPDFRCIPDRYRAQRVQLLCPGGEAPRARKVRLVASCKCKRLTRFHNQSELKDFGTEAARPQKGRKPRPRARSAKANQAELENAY
# B1: P7068 (bispecific antibody, human IgG2, lambda)
# heavy: SGGSCPAYTEFLCKDSDRCFPSEWRCDGEMDCVDGSDELHCAYHTCAPNQFRCNSYDKCVPAHWVCDGVLDCLDSSDETNCSAPASEPPGSLSQVQLVESGGGVVQPGRSLRLSCAASGFTFSRYDMHWVRQAPGKGLEWVAIIFYDGSNKYYADPVKGRFTISRDNSKNTLYLQMNSLRAEDTAVYYCATLAAAFDYWGQGTLVTVSSASTKGPSVFPLAPCSRSTSESTAALGCLVKDYFPEPVTVSWNSGALTSGVHTFPAVLQSSGLYSLSSVVTVPSSNFGTQTYTCNVDHKPSNTKVDKTVERKCCVECPPCPAPPVAGPSVFLFPPKPKDTLMISRTPEVTCVVVDVSHEDPEVQFNWYVDGVEVHNAKTKPREEQFNSTFRVVSVLTVVHQDWLNGKEYKCKVSNKGLPAPIEKTISKTKGQPREPQVYTLPPSREEMTKNQVSLTCLVKGFYPSDIAVEWESNGQPENNYKTTPPMLDSDGSFFLYSKLTVDKSRWQQGNVFSCSVMHEALHNHYTQKSLSLSPGK
# light: YVLTQPPSVSVAPGQTARITCGGNNIGSKSVHWYQQKPGQAPVLVVYDDSDRPSEIPERFSGSNSGNTATLTISRVEAGDEADYYCQVWDSSSDHVVFGGGTRLTVLGQPKAAPSVTLFPPSSEELQANKATLVCLISDFYPGAVTVAWKADSSPVKAGVETTTPSKQSNNKYAASSYLSLTPEQWKSHRSYSCQVTHEGSTVEKTVAPTECS
# notes: also called P7011; Ab-Avimer-1 (P7068A)
# B2: P7079 (bispecific antibody, human IgG2, lambda)
# heavy: QVQLVESGGGVVQPGRSLRLSCAASGFTFSRYDMHWVRQAPGKGLEWVAIIFYDGSNKYYADPVKGRFTISRDNSKNTLYLQMNSLRAEDTAVYYCATLAAAFDYWGQGTLVTVSSASTKGPSVFPLAPCSRSTSESTAALGCLVKDYFPEPVTVSWNSGALTSGVHTFPAVLQSSGLYSLSSVVTVPSSNFGTQTYTCNVDHKPSNTKVDKTVERKCCVECPPCPAPPVAGPSVFLFPPKPKDTLMISRTPEVTCVVVDVSHEDPEVQFNWYVDGVEVHNAKTKPREEQFNSTFRVVSVLTVVHQDWLNGKEYKCKVSNKGLPAPIEKTISKTKGQPREPQVYTLPPSREEMTKNQVSLTCLVKGFYPSDIAVEWESNGQPENNYKTTPPMLDSDGSFFLYSKLTVDKSRWQQGNVFSCSVMHEALHNHYTQKSLSLSPGKSSGGSCAPNQFRCNSYDKCVPAHWVCDGVLDCLDSSDETNCSAPASEPPGSLCPAYTEFLCKDSDRCFPSEWRCDGEMDCVDGSDELHCAYHTSLQ
# light: YVLTQPPSVSVAPGQTARITCGGNNIGSKSVHWYQQKPGQAPVLVVYDDSDRPSEIPERFSGSNSGNTATLTISRVEAGDEADYYCQVWDSSSDHVVFGGGTRLTVLGQPKAAPSVTLFPPSSEELQANKATLVCLISDFYPGAVTVAWKADSSPVKAGVETTTPSKQSNNKYAASSYLSLTPEQWKSHRSYSCQVTHEGSTVEKTVAPTECS
# notes: also called P6887; Ab-Avimer-6 (P7079A)
# B3: P7653 (bispecific antibody, human IgG2, lambda)
# heavy: SGGSCPAYTEFLCADSDACFPSEWACDGEMDCVDGSDELHCAYHTCAPNQFACNSYDACVPAHWVCDGVLDCLDSSDETNCSAPASEPPGSLSQVQLVESGGGVVQPGRSLRLSCAASGFTFSRYDMHWVRQAPGKGLEWVAIIFYDGSNKYYADPVKGRFTISRDNSKNTLYLQMNSLRAEDTAVYYCATLAAAFDYWGQGTLVTVSSASTKGPSVFPLAPCSRSTSESTAALGCLVKDYFPEPVTVSWNSGALTSGVHTFPAVLQSSGLYSLSSVVTVPSSNFGTQTYTCNVDHKPSNTKVDKTVERKCCVECPPCPAPPVAGPSVFLFPPKPKDTLMISRTPEVTCVVVDVSHEDPEVQFNWYVDGVEVHNAKTKPREEQFNSTFRVVSVLTVVHQDWLNGKEYKCKVSNKGLPAPIEKTISKTKGQPREPQVYTLPPSREEMTKNQVSLTCLVKGFYPSDIAVEWESNGQPENNYKTTPPMLDSDGSFFLYSKLTVDKSRWQQGNVFSCSVMHEALHNHYTQKSLSLSPGK
# light: YVLTQPPSVSVAPGQTARITCGGNNIGSKSVHWYQQKPGQAPVLVVYDDSDRPSEIPERFSGSNSGNTATLTISRVEAGDEADYYCQVWDSSSDHVVFGGGTRLTVLGQPKAAPSVTLFPPSSEELQANKATLVCLISDFYPGAVTVAWKADSSPVKAGVETTTPSKQSNNKYAASSYLSLTPEQWKSHRSYSCQVTHEGSTVEKTVAPTECS
# notes: also called C140163
# B4: P7654 (bispecific antibody, human IgG2, lambda)
# heavy: QVQLVESGGGVVQPGRSLRLSCAASGFTFSRYDMHWVRQAPGKGLEWVAIIFYDGSNKYYADPVKGRFTISRDNSKNTLYLQMNSLRAEDTAVYYCATLAAAFDYWGQGTLVTVSSASTKGPSVFPLAPCSRSTSESTAALGCLVKDYFPEPVTVSWNSGALTSGVHTFPAVLQSSGLYSLSSVVTVPSSNFGTQTYTCNVDHKPSNTKVDKTVERKCCVECPPCPAPPVAGPSVFLFPPKPKDTLMISRTPEVTCVVVDVSHEDPEVQFNWYVDGVEVHNAKTKPREEQFNSTFRVVSVLTVVHQDWLNGKEYKCKVSNKGLPAPIEKTISKTKGQPREPQVYTLPPSREEMTKNQVSLTCLVKGFYPSDIAVEWESNGQPENNYKTTPPMLDSDGSFFLYSKLTVDKSRWQQGNVFSCSVMHEALHNHYTQKSLSLSPGKSSGGSCAPNQFACNSYDKCVPAHWVCDGVLDCLDSSDETNCSAPASEPPGSLCPAYTEFLCADSDACFPSEWACDGEMDCVDGSDELHCAYHTSLQ
# light: YVLTQPPSVSVAPGQTARITCGGNNIGSKSVHWYQQKPGQAPVLVVYDDSDRPSEIPERFSGSNSGNTATLTISRVEAGDEADYYCQVWDSSSDHVVFGGGTRLTVLGQPKAAPSVTLFPPSSEELQANKATLVCLISDFYPGAVTVAWKADSSPVKAGVETTTPSKQSNNKYAASSYLSLTPEQWKSHRSYSCQVTHEGSTVEKTVAPTECS
# notes: also called C140164
# B5: P7077 (bispecific antibody, human IgG2, lambda)
# heavy: QVQLVESGGGVVQPGRSLRLSCAASGFTFSRYDMHWVRQAPGKGLEWVAIIFYDGSNKYYADPVKGRFTISRDNSKNTLYLQMNSLRAEDTAVYYCATLAAAFDYWGQGTLVTVSSASTKGPSVFPLAPCSRSTSESTAALGCLVKDYFPEPVTVSWNSGALTSGVHTFPAVLQSSGLYSLSSVVTVPSSNFGTQTYTCNVDHKPSNTKVDKTVERKCCVECPPCPAPPVAGPSVFLFPPKPKDTLMISRTPEVTCVVVDVSHEDPEVQFNWYVDGVEVHNAKTKPREEQFNSTFRVVSVLTVVHQDWLNGKEYKCKVSNKGLPAPIEKTISKTKGQPREPQVYTLPPSREEMTKNQVSLTCLVKGFYPSDIAVEWESNGQPENNYKTTPPMLDSDGSFFLYSKLTVDKSRWQQGNVFSCSVMHEALHNHYTQKSLSLSPGKSSGGSCGRDHFRCRSYDKCVPAHWLCDGVLDCLDSSDETYCSAPASEPPGSLCPAYTEFLCKDSDRCFPSEWRCDGEMDCVDGSDELHCAYHTSLQ
# light: YVLTQPPSVSVAPGQTARITCGGNNIGSKSVHWYQQKPGQAPVLVVYDDSDRPSEIPERFSGSNSGNTATLTISRVEAGDEADYYCQVWDSSSDHVVFGGGTRLTVLGQPKAAPSVTLFPPSSEELQANKATLVCLISDFYPGAVTVAWKADSSPVKAGVETTTPSKQSNNKYAASSYLSLTPEQWKSHRSYSCQVTHEGSTVEKTVAPTECS
# notes: also called P6888; Ab-Avimer-4 (P7077A)
# B6: P7651 (bispecific antibody, human IgG2, lambda)
# heavy: QVQLVESGGGVVQPGRSLRLSCAASGFTFSRYDMHWVRQAPGKGLEWVAIIFYDGSNKYYADPVKGRFTISRDNSKNTLYLQMNSLRAEDTAVYYCATLAAAFDYWGQGTLVTVSSASTKGPSVFPLAPCSRSTSESTAALGCLVKDYFPEPVTVSWNSGALTSGVHTFPAVLQSSGLYSLSSVVTVPSSNFGTQTYTCNVDHKPSNTKVDKTVERKCCVECPPCPAPPVAGPSVFLFPPKPKDTLMISRTPEVTCVVVDVSHEDPEVQFNWYVDGVEVHNAKTKPREEQFNSTFRVVSVLTVVHQDWLNGKEYKCKVSNKGLPAPIEKTISKTKGQPREPQVYTLPPSREEMTKNQVSLTCLVKGFYPSDIAVEWESNGQPENNYKTTPPMLDSDGSFFLYSKLTVDKSRWQQGNVFSCSVMHEALHNHYTQKSLSLSPGKSSGGSCAPNQFRCNSYDKCVPAHWVCDGVLDCLDSSDETNCSAPASEPPGSLCPAYTEFLCADSDRCFPSEWRCDGEMDCVDGSDELHCAYHTSLQ
# light: YVLTQPPSVSVAPGQTARITCGGNNIGSKSVHWYQQKPGQAPVLVVYDDSDRPSEIPERFSGSNSGNTATLTISRVEAGDEADYYCQVWDSSSDHVVFGGGTRLTVLGQPKAAPSVTLFPPSSEELQANKATLVCLISDFYPGAVTVAWKADSSPVKAGVETTTPSKQSNNKYAASSYLSLTPEQWKSHRSYSCQVTHEGSTVEKTVAPTECS
# notes: also called C140161
# B7: P7080 (bispecific antibody, human IgG2, lambda)
# light: YVLTQPPSVSVAPGQTARITCGGNNIGSKSVHWYQQKPGQAPVLVVYDDSDRPSEIPERFSGSNSGNTATLTISRVEAGDEADYYCQVWDSSSDHVVFGGGTRLTVLGQPKAAPSVTLFPPSSEELQANKATLVCLISDFYPGAVTVAWKADSSPVKAGVETTTPSKQSNNKYAASSYLSLTPEQWKSHRSYSCQVTHEGSTVEKTVAPTECSSSGGSCPAYTEFLCKDSDRCFPSEWRCDGEMDCVDGSDELHCAYHTCAPNQFRCNSYDKCVPAHWVCDGVLDCLDSSDETNCSAPASEPPGSLSLQ
# heavy: QVQLVESGGGVVQPGRSLRLSCAASGFTFSRYDMHWVRQAPGKGLEWVAIIFYDGSNKYYADPVKGRFTISRDNSKNTLYLQMNSLRAEDTAVYYCATLAAAFDYWGQGTLVTVSSASTKGPSVFPLAPCSRSTSESTAALGCLVKDYFPEPVTVSWNSGALTSGVHTFPAVLQSSGLYSLSSVVTVPSSNFGTQTYTCNVDHKPSNTKVDKTVERKCCVECPPCPAPPVAGPSVFLFPPKPKDTLMISRTPEVTCVVVDVSHEDPEVQFNWYVDGVEVHNAKTKPREEQFNSTFRVVSVLTVVHQDWLNGKEYKCKVSNKGLPAPIEKTISKTKGQPREPQVYTLPPSREEMTKNQVSLTCLVKGFYPSDIAVEWESNGQPENNYKTTPPMLDSDGSFFLYSKLTVDKSRWQQGNVFSCSVMHEALHNHYTQKSLSLSPGK
# notes: also called P7009; Ab-Avimer-7 (P7080A)
# B8: P7652 (bispecific antibody, human IgG2, lambda)
# light: YVLTQPPSVSVAPGQTARITCGGNNIGSKSVHWYQQKPGQAPVLVVYDDSDRPSEIPERFSGSNSGNTATLTISRVEAGDEADYYCQVWDSSSDHVVFGGGTRLTVLGQPKAAPSVTLFPPSSEELQANKATLVCLISDFYPGAVTVAWKADSSPVKAGVETTTPSKQSNNKYAASSYLSLTPEQWKSHRSYSCQVTHEGSTVEKTVAPTECSSSGGSCPAYTEFLCADSDRCFPSEWRCDGEMDCVDGSDELHCAYHTCAPNQFRCNSYDKCVPAHWVCDGVLDCLDSSDETNCSAPASEPPGSLSLQ
# heavy: QVQLVESGGGVVQPGRSLRLSCAASGFTFSRYDMHWVRQAPGKGLEWVAIIFYDGSNKYYADPVKGRFTISRDNSKNTLYLQMNSLRAEDTAVYYCATLAAAFDYWGQGTLVTVSSASTKGPSVFPLAPCSRSTSESTAALGCLVKDYFPEPVTVSWNSGALTSGVHTFPAVLQSSGLYSLSSVVTVPSSNFGTQTYTCNVDHKPSNTKVDKTVERKCCVECPPCPAPPVAGPSVFLFPPKPKDTLMISRTPEVTCVVVDVSHEDPEVQFNWYVDGVEVHNAKTKPREEQFNSTFRVVSVLTVVHQDWLNGKEYKCKVSNKGLPAPIEKTISKTKGQPREPQVYTLPPSREEMTKNQVSLTCLVKGFYPSDIAVEWESNGQPENNYKTTPPMLDSDGSFFLYSKLTVDKSRWQQGNVFSCSVMHEALHNHYTQKSLSLSPGK
# notes: also called C140162
# Biological target: T1, biotin labeled human recombinant …
# Assay: AlphaScreen Sclerostin/LRP-6 inhibition
row,Binder,binding result
1,B1,binds
2,B2,binds
3,B3,binds
4,B4,binds
5,B5,binds
6,B6,binds
7,B7,binds
8,B8,binds
